T1: Full-length human RAD51 (human, UniProt Q06609 1-339)
T1 sequence: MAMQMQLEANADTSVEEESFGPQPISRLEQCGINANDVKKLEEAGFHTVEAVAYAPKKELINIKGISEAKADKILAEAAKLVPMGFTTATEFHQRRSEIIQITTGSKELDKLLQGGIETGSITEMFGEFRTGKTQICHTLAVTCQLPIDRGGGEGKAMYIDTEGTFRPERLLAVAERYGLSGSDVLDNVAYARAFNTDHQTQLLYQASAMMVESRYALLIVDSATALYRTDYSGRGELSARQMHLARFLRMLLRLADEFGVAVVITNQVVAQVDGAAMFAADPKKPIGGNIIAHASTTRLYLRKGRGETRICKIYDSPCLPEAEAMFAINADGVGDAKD

B1: Lys80 RAD51 (residues 80-339) (domain or fragment)
chain: KLVPMGFTTATEFHQRRSEIIQITTGSKELDKLLQGGIETGSITEMFGEFRTGKTQICHTLAVTCQLPIDRGGGEGKAMYIDTEGTFRPERLLAVAERYGLSGSDVLDNVAYARAFNTDHQTQLLYQASAMMVESRYALLIVDSATALYRTDYSGRGELSARQMHLARFLRMLLRLADEFGVAVVITNQVVAQVDGAAMFAADPKKPIGGNIIAHASTTRLYLRKGRGETRICKIYDSPCLPEAEAMFAINADGVGDAKD

Key:
[1] = biological target: the molecule itself; assay: SEC
[2] = biological target: B1; assay: pull-down
[3] = biological target: T1, Full-length human RAD51; assay: cross-linking

| binding result [2] | binding result [3] | Binder | binding result [1] |
| --- | --- | --- | --- |
| – | – | B1 | binds |
| binds | binds | EKIKEPTLLGFHTASGKKVKIAKESLDKVKNLFDE (biotin on the N-terminus) [BRC4 peptide (human BRCA2 residues 1,514-1,548), biotinylated] | – |

Reference: PMC2096194 (Nature structural & molecular biology, 2007)
